These results are taken from patent publication US20090304746A1.

The target of test [1] is HLA-B*0702 (human). Particulars: remark: other sources report otherwise.
Test [2] deals with HLA-B*3501 (human). Particulars: remark: other sources report otherwise.
The target of test [3] is HLA-B*0702 (human). Nature of the test: competition with 125I-labelled standard peptide for purified HLA, gel filtration. A general note: SEC sorts molecules by how far they enter the pores of the column.
The target of test [4] is HLA-B*3501 (human). Described as above.
The next test concerns the target HLA-B*5101 (human). Described as above.
The target in test [5] is HLA-B*5301 (human). The test is described as above.
Test [6] has as its target HLA-B*5401 (human). The test is described as above.
The target of test [7] is HLA-A*3101 (human). The description is as above.
Test [8] addresses HLA-A*6801 (human). Described as above.
Test [9] deals with HLA-B*3501 (human). Particulars: remark: other sources report otherwise. This is another data set of the same source.
A further test has as its target HLA-B*51 (human). Particulars: remark: other sources report otherwise.
Test [10] concerns the target HLA-B*5301 (human). Particulars: remark: other sources report otherwise.
The target of test [11] is HLA-B*5401 (human). Particulars: remark: other sources report otherwise.
Test [12] deals with HLA-A*0301 (human). The experiment in a line: competition with 125I-labeled standard peptide on purified HLA, gel filtration.
For test [13], the target named is HLA-A*1101 (human). Described as above.
For test [14], the target named is HLA-A*3101 (human). Described as above.
For test [15], the target named is HLA-A*3301 (human). The description is as above.
The target of test [16] is HLA-A*6801 (human). The test is described as above.
Test [17] has as its target HLA-A*1101 (human).
Test [18] deals with T1, HLA-DR5w11 (DRB1*1101) (human).
T1 chain 1: not shown
T1 chain 2: not shown

Test [19] deals with T2, HLA-DR6w19 (DRB1*1302) (human).
T2 chain 1: not shown
T2 chain 2: not shown

Test [20] concerns the target T3, HLA-DR7 (DRB1*0701) (human).
T3 chain 1: not shown
T3 chain 2: not shown

The target of test [21] is T4, HLA-DR8w2 (DRB1*0802) (human).
T4 chain 1: not shown
T4 chain 2: not shown

For test [22], the target named is T5, HLA-DR9 (DRB1*0901) (human).
T5 chain 1: not shown
T5 chain 2: not shown

For test [23], the target named is HLA-A*0201 (human). The experiment in a line: competition with 125I-labelled standard peptide for purified HLA, gel filtration.
In a further test the target is HLA-A*0206 (human). Described as above.
The target of test [24] is HLA-A*0301 (Human).
Test [25] addresses HLA-A*1101 (human). The source holds these as a separate data set.
Test [26] has as its target HLA-A*1101 (human). The source holds these as a separate data set.
Test [27] concerns the target HLA-DR3 (DRB1*0301) (human). Nature of the test: competition with 125I-labeled probe for purified HLA-DR3, gel filtration. Particulars: remark: other sources report otherwise.
Test [28] has as its target HLA-A*0201 (human). The experiment in a line: competition with 125I-labeled probe for purified HLA, gel filtration.
Test [29] deals with HLA-A*0202 (human), P30375. The description is as above.
For the next test, the target named is HLA-A*6802 (human). Described as above.
Test [30] addresses T6, HLA-DR5w12 (DRB1*1201) (human).
T6 chain 1: not shown
T6 chain 2: not shown
Nature of the test: purified HLA-DR, inhibition of 125I standard peptide, gel filtration.

The target in test [31] is T3, HLA-DR7 (DRB1*0701) (human). The test is described as above.
The target of test [32] is T4, HLA-DR8w2 (DRB1*0802) (human). The description is as above.
In test [33] the target is T5, HLA-DR9 (DRB1*0901) (human). Described as above.
Test [34] addresses HLA-A*0301 (human).
Test [35] has as its target HLA-A*3301 (human).
Test [36] has as its target HLA-A*0301 (human). Nature of the test: competition with 125I-labelled standard peptide on purified HLA, gel filtration.
Test [37] deals with HLA-A*3101 (human). The test is described as above.
Test [38] deals with HLA-A*6801 (human). Described as above.
Test [39] concerns the target HLA-A*03 (purified HLA class I molecule) (human).
Test [40] has as its target T7, HLA-DR1 (DRB1*0101) (human).
T7 chain 1: not shown
T7 chain 2: not shown
The experiment in a line: purified HLA-DR, inhibition of 125I standard peptide, gel filtration. Particulars: remark: other sources report otherwise.

The target of test [41] is T8, HLA-DR3 (DRB1*0301) (human).
T8 chain 1: not shown
T8 chain 2: not shown
The description is as above. Particulars: remark: other sources report otherwise.

Test [42] has as its target T9, HLA-DR4w15 (DRB1*0405) (human).
T9 chain 1: not shown
T9 chain 2: not shown
The description is as above. Particulars: remark: other sources report otherwise.

The target in test [43] is HLA-A*6801 (purified HLA class I molecule) (human). Particulars: remark: other sources report otherwise.

Where two headings read alike, the source gives them in different places. No end group written: not given here.

B1: Peptide 29.0085, HCV NS5 2474 (peptide)
peptide: LPINALSNSL
modifications: not checked
Consider B1, for which the figures for the half-inhibitory concentration (IC50) with HLA-B*0702 (human) [1] and with HLA-B*3501 (human) [2] were 0.22 µM and 18 µM, respectively.

B2: HCV peptide … (polyprotein position 2856) (peptide)
peptide: TPVNSWLGNI
modifications: not checked
Consider B2, for which the binding affinity ratio (relative to standard peptide) turned out to be 0.0001 with HLA-B*0702 (human) [3]; 0.0001 with HLA-B*3501 (human) [4]; 0.0053 with HLA-B*5101 (human); 0.0006 with HLA-B*5301 (human) [5]; 0.0003 with HLA-B*5401 (human) [6].

B3: HCV peptide … (polyprotein position 2250) (peptide)
peptide: ITRVESENK
modifications: not checked
In the case of B3, the binding affinity ratio (IC50 of standard peptide / IC50 of test peptide) with HLA-A*3101 (human) [7] came to 0.0007; with HLA-A*6801 (human) [8] it was 0.0092.

B4: Peptide 15.0237, HCV NS4 1789 (peptide)
peptide: NPAIASLMAF
modifications: not checked
Take B4: the IC50 (usually the concentration at which inhibition is half-maximal) with HLA-B*3501 (human) [9] is 9 µM; in the test with HLA-B*51 (human), 5 µM; with HLA-B*5301 (human) [10], over 30 µM; in the test with HLA-B*5401 (human) [11], over 30 µM.

B5: HCV peptide … (HCV polyprotein position 1592) (peptide)
peptide: VAYQATVCAR
modifications: not checked
With B5, the binding affinity ratio (IC50 of standard peptide / IC50 of test peptide) was 0.0005 with HLA-A*0301 (human) [12]; 0.0036 with HLA-A*1101 (human) [13]; 0.068 in the test with HLA-A*3101 (human) [14]; 0.072 in the test with HLA-A*3301 (human) [15]; 0.028 in the test with HLA-A*6801 (human) [16].

B6: … (HCV polyprotein position 1915) (peptide)
peptide: EGAVQWMNR
modifications: not checked
For the molecule B6, the binding affinity ratio (IC50 of standard peptide / IC50 of test peptide) with HLA-A*1101 (human) [17] was found to be 0.0014.

B7: HCV NS1/E2 506 peptide 1283.11 (peptide)
peptide: CGPVYCFTPSPVVVG
modifications: not checked
On to B7, for which the binding affinity ratio (relative to standard peptide) was 0.0005 in [18]; -0.0001 in [19]; 0.27 in [20]; 0.0011 in test [21]; 0.43 in test [22].

B8: HCV peptide … (HCV polyprotein position 1816) (peptide)
peptide: ILGGWVAAQL
modifications: not checked
As to B8, the binding affinity ratio (IC50 of standard peptide / IC50 of test peptide) in the test with HLA-A*0201 (human) [23] turned out to be 0.043; in the test with HLA-A*0206 (human), 0.0005.

B9: HCV peptide … (polyprotein position 1940) (peptide)
peptide: VPESDAAARV
modifications: not checked
For the molecule B9, the binding affinity ratio (relative to standard peptide) came to 0.0001 with HLA-B*0702 (human) [3]; 0.0001 in the test with HLA-B*3501 (human) [4]; 0.001 in the test with HLA-B*5101 (human); 0.0001 in the test with HLA-B*5301 (human) [5]; 0.0003 with HLA-B*5401 (human) [6].

B10: … (HCV polyprotein position 2554) (peptide)
peptide: FGYGAKDVR
modifications: not checked
As to B10, the binding affinity ratio (IC50 of standard peptide / IC50 of test peptide) with HLA-A*0301 (Human) [24] stood at 0.0008; with HLA-A*1101 (human) [25], 0.0005.

B11: HCV peptide … (position 10) (peptide)
peptide: KTKRNTNRR
modifications: not checked
Regarding B11, the binding affinity ratio (IC50 of standard peptide / IC50 of test peptide) with HLA-A*1101 (human) [26] stood at 0.01.

B12: HCV 1726 DR3B-motif 15-mer […] (core …) (peptide)
peptide: GMQLAEQFKQKALGL
modifications: not fully specified
For B12, in test [27], the binding affinity ratio (IC50 of standard peptide / IC50 of test peptide) came out at 0.019.

B13: HCV NS4 1590 peptide 1013.02 (peptide)
peptide: YLVAYQATV
modifications: not checked
For B13, the IC50 with HLA-A*0201 (human) [28] amounted to 0.02 µM; in [29], 0.039 µM; in the test with HLA-A*6802 (human), 0.033 µM.

B14: HCV peptide … (core …) (peptide)
peptide: ASCLRKLGVPPLRVW
modifications: not checked
Consider B14, for which the relative binding (IC50 of standard peptide / IC50 of test peptide) is 1.9 in [30], 0.029 in [31], 0.073 in test [32] and 0.0007 in [33].

B15: … (HCV polyprotein position 1622) (peptide)
peptide: TLHGPTPLLY
modifications: not checked
Turning to B15, the binding affinity ratio (IC50 of standard peptide / IC50 of test peptide) with HLA-A*0301 (human) [34] (remark: other sources report otherwise) is 0.089.

B16: HCV peptide … (HCV polyprotein position 31, 9-mer, A03 motif) (peptide)
peptide: VGGVYLLPR
modifications: not checked
For the molecule B16, the binding affinity ratio (IC50 of standard peptide / IC50 of test peptide) in the test with HLA-A*0301 (human) [34] came to 0.0003.

B17: HCV peptide … (polyprotein position 1236) (peptide)
peptide: PTGSGKSTK
modifications: not checked
For the molecule B17, the binding affinity ratio (IC50 of standard peptide / IC50 of test peptide) stood at 0.0006 with HLA-A*3301 (human) [35], 0.0002 with HLA-A*0301 (human) [36], 0.0008 with HLA-A*3101 (human) [37] and 0.0002 in the test with HLA-A*6801 (human) [38].

B18: Peptide 24.0103 (HCV NS1/E2 647, …) (peptide)
peptide: AACNWTRGER
modifications: not checked
For B18, the IC50 in [39] was found to be 36.7 µM.

B19: … (HCV polyprotein position 689) (peptide)
peptide: ALSTGLIHLH
modifications: not checked
B19: the binding affinity ratio (IC50 of standard peptide / IC50 of test peptide) with HLA-A*1101 (human) [17] was 0.0027.

B20: HCV peptide … (core …) (peptide)
peptide: GSSYGFQYSPGQRVE
modifications: not checked
As to B20, the results for the relative binding (IC50 of standard peptide / IC50 of test peptide) in test [40], in [41] and in test [42] were 0.46, 0.0007 and 0.051, respectively.

B21: HCV peptide … (position 1925) (peptide)
peptide: IAFASRGNH
modifications: not checked
Consider B21, for which the binding affinity ratio (IC50 of standard peptide / IC50 of test peptide) with HLA-A*1101 (human) [26] was found to be 0.0003.

B22: … (HCV polyprotein position 1134) (peptide)
peptide: DLYLVTRHA
modifications: not checked
For B22, the binding affinity ratio (IC50 of standard peptide / IC50 of test peptide) with HLA-A*0301 (Human) [24] was 0.0003.

B23: Peptide 1090.23 (HCV LORF 1183, …) (peptide)
peptide: AVCTRGVAK
modifications: not checked
The molecule B23 registered an IC50 in test [43] of over 30 µM.
